Data taken from patent US20110159025.

Tests used:
HIV-2 capsid (CA) = HIV-2 capsid (CA) (UniProt P04590)
[1] = target: HIV-1 capsid mutant G89V (pLaiΔEnv-GFP3 G89V) (UniProt P03348)
[2] = system: HIV-1 capsid (CA), wild type, newly synthesized from HIVGFP (NL4-3 derived)

## cyclophilin A (CypA)
HIV-2 capsid (CA)
  infection and activation of MDDC: has the potential to infect and activate MDDC in a CypA-dependent manner
[1]
  CD86 expression in infected MDDC: resulted in substantially reduced CD86 expression at similar levels of infection
[2]
  CD86 expression in MDDC infected with HIVGFP(G)+SIVVLP(G), Cyclosporin A added at different times: Up to 24 h, Cyclosporin A (CsA) reduces CD86 expression
  CD86 up-regulation in MDDC after shRNA knockdown of CypA: prevented CD86 up-regulation following infection with HIV-1 (HDVIRESRFP(G), encoding the reporter RFP), but not following treatment with LPS
  MDDC activation (CD86 up-regulation) under Cyclosporin A: prevented MDDC activation following infection with HIVGFP(G) and SIVVLP(G), but not following treatment with LPS
